T1: FcγRIIb extracellular domain with C-terminal His tag (human, UniProt P31994 43-217)
T1 construct: extracellular domain; also called FcgRIIb; 2b; not shown: His tag at the C terminus
T1 sequence (looked up): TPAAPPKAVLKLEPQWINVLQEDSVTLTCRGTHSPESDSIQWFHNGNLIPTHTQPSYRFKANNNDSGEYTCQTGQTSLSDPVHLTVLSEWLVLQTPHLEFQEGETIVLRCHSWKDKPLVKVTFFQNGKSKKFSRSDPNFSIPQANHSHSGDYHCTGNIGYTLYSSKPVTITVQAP

T2: FcγRIIa R (FcγRIIa, allotype R: Arg at position 131) extracellular domain with C-terminal His tag (human, UniProt P12318 34-217)
T2 construct: extracellular domain; also called FcgRIIa R; 2aR; not shown: His tag at the C terminus
T2 sequence (looked up): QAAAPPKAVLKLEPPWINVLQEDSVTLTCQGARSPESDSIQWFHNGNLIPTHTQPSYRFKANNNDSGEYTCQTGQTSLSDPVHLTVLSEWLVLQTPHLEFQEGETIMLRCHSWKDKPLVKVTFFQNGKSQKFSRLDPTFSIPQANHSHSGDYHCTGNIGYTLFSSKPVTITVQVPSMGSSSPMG

B1: GpH7-B3 variant S337_08L/GpL16-k0 (antibody, human IgG1, kappa)
heavy: not shown
light: DIVMTQSPLSLPVTPGEPASISCQASESLVHSNRNTYLHWYLQKPGQSPQLLIYKVSNRFSGVPDRFSGSGSGTDFTLKISRVEAEDVGVYYCSQNTHVPPTFGQGTKVEIERTVAAPSVFIFPPSDEQLKSGTASVVCLLNNFYPREAKVQWKVDNALQSGNSQESVTEQDSKDSTYSLSSTLTLSKADYEKHKVYACEVTHQGLSSPVTKSFNRGEC
notes: homodimerized, mutation in both H chains; also called Ho Ab
B2: GpH7-B3 variant K326_10E/GpL16-k0 (antibody, human IgG1, kappa)
heavy: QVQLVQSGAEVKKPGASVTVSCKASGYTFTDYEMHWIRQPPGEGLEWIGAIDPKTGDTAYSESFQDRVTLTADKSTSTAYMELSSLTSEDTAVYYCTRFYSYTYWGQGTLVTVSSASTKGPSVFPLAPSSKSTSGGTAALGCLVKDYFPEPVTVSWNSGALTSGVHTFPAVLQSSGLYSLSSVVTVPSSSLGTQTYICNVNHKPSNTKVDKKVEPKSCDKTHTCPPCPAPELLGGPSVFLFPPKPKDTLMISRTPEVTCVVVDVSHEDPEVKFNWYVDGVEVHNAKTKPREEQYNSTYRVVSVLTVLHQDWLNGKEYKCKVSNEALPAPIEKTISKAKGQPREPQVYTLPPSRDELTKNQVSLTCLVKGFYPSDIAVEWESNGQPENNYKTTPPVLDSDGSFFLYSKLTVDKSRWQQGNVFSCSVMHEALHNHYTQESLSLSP
light: B1 light
notes: as for B1
B3: GpH7-B3 variant G236_07I/GpL16-k0 (antibody, human IgG1, kappa)
heavy: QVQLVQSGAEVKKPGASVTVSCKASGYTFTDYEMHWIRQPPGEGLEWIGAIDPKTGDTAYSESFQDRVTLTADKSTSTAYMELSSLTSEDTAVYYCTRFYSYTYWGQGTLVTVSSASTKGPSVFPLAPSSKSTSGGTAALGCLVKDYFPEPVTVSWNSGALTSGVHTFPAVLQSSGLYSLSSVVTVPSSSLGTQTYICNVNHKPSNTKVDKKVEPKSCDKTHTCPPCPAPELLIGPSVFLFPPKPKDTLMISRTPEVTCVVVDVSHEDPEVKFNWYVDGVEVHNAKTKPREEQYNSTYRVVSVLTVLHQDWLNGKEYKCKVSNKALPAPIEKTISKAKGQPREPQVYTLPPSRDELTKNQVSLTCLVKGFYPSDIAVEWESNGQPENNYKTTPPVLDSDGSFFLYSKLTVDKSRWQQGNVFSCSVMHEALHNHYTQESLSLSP
light: B1 light
notes: as for B1
B4: GpH7-B3 variant K326_06M/GpL16-k0 (antibody, human IgG1, kappa)
heavy: not shown
light: B1 light
notes: as for B1
B5: GpH7-B3 variant G236_03V/GpL16-k0 (antibody, human IgG1, kappa)
heavy: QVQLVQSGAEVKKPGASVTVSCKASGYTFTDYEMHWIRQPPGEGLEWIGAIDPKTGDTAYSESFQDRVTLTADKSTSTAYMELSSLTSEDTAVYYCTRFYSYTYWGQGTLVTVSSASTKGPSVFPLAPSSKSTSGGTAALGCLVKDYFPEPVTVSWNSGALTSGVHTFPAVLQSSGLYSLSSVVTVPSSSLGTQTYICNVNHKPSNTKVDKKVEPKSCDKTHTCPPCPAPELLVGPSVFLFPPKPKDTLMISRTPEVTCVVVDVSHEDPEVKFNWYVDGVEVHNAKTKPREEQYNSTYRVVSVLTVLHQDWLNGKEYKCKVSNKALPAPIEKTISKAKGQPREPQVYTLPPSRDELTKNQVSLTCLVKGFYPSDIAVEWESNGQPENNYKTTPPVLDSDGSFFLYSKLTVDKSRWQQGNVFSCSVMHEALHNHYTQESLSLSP
light: B1 light
notes: as for B1
B6: GpH7-B3 variant H268_19Q/GpL16-k0 (antibody, human IgG1, kappa)
heavy: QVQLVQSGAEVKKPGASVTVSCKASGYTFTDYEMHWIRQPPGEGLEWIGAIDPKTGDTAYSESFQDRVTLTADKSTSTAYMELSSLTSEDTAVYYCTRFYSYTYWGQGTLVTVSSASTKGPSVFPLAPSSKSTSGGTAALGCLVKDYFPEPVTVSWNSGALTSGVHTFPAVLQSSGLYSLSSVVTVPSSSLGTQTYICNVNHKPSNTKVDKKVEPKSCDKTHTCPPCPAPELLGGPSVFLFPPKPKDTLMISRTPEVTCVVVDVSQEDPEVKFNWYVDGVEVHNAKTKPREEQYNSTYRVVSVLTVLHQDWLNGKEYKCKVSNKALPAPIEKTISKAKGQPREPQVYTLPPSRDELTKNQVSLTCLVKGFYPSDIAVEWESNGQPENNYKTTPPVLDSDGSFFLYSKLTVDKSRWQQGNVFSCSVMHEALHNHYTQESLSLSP
light: B1 light
notes: as for B1
B7: GpH7-B3 variant H268_18N/GpL16-k0 (antibody, human IgG1, kappa)
heavy: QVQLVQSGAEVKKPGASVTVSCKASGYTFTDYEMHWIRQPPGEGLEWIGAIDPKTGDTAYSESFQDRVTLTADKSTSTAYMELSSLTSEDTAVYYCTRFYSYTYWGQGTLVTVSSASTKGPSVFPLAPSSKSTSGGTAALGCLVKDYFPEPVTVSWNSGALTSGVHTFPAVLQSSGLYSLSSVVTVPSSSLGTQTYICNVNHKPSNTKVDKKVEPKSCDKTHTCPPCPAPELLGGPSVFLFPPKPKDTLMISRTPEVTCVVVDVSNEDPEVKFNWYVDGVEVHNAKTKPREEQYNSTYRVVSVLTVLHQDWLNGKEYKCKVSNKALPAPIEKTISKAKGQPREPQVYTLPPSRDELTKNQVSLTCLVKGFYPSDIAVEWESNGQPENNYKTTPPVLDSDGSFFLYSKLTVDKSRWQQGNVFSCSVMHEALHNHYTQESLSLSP
light: B1 light
notes: as for B1
B8: GpH7-B3 variant K326_19Q/GpL16-k0 (antibody, human IgG1, kappa)
heavy: not shown
light: B1 light
notes: as for B1
B9: GpH7-B3 variant Y296_16H/GpL16-k0 (antibody, human IgG1, kappa)
heavy: not shown
light: B1 light
notes: as for B1
B10: GpH7-B3 variant I336_08L/GpL16-k0 (antibody, human IgG1, kappa)
heavy: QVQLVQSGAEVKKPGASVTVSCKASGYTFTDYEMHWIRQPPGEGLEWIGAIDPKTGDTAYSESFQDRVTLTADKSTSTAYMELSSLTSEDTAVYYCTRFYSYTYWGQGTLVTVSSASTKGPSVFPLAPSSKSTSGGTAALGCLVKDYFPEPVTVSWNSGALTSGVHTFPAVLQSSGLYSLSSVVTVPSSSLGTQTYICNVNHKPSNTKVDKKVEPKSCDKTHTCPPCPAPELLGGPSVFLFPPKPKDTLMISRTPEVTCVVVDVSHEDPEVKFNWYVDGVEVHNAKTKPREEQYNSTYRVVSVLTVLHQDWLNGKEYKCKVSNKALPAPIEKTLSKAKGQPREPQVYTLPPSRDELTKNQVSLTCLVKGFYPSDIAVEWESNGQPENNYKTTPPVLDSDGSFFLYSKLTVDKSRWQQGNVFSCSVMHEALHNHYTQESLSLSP
light: B1 light
notes: as for B1
B11: GpH7-B3 variant Y296_09D/GpL16-k0 (antibody, human IgG1, kappa)
heavy: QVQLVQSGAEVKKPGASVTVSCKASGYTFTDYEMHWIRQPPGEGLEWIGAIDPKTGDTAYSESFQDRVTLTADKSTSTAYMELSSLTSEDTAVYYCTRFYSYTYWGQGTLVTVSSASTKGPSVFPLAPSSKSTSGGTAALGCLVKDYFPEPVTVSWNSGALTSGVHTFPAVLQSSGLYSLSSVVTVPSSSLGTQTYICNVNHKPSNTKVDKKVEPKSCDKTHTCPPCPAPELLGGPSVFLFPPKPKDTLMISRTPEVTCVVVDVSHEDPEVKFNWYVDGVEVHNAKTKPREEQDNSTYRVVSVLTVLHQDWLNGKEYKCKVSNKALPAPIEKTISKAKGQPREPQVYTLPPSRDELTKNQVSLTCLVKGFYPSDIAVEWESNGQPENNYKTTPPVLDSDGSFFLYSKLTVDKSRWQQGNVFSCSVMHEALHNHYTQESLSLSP
light: B1 light
notes: as for B1
B12: GpH7-B3 variant S337_20W/GpL16-k0 (antibody, human IgG1, kappa)
heavy: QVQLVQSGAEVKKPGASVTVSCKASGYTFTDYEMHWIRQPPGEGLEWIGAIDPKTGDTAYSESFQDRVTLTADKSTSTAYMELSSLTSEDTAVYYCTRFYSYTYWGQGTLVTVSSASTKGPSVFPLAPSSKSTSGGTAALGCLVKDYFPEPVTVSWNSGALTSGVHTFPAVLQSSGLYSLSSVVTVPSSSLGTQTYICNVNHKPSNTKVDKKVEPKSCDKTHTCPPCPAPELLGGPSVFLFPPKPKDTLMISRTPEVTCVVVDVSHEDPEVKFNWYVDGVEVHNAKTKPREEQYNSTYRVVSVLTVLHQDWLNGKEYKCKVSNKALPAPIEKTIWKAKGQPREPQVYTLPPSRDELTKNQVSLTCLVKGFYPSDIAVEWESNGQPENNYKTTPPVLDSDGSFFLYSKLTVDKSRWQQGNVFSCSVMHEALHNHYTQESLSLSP
light: B1 light
notes: as for B1
B13: GpH7-B3 variant I336_06M/GpL16-k0 (antibody, human IgG1, kappa)
heavy: not shown
light: B1 light
notes: as for B1
B14: GpH7-B3 variant V266_08L/GpL16-k0 (antibody, human IgG1, kappa)
heavy: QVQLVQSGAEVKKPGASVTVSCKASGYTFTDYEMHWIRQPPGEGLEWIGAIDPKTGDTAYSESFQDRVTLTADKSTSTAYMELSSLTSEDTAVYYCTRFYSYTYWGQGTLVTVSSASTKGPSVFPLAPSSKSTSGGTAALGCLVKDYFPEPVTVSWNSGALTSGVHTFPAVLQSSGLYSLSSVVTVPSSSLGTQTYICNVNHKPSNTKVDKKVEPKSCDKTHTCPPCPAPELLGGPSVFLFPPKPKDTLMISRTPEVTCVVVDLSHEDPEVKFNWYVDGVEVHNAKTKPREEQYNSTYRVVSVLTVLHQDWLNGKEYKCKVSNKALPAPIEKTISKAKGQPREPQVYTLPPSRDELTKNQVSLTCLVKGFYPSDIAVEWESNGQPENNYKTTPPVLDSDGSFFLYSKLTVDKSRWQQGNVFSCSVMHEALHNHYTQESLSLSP
light: B1 light
notes: as for B1
B15: GpH7-B3 variant T335_18N/GpL16-k0 (antibody, human IgG1, kappa)
heavy: not shown
light: B1 light
notes: as for B1
B16: GpH7-B3 variant H268_02A/GpL16-k0 (antibody, human IgG1, kappa)
heavy: not shown
light: B1 light
notes: as for B1
B17: GpH7-B3 variant T335_20W/GpL16-k0 (antibody, human IgG1, kappa)
heavy: not shown
light: B1 light
notes: as for B1
B18: GpH7-B3 variant Y296_04F/GpL16-k0 (antibody, human IgG1, kappa)
heavy: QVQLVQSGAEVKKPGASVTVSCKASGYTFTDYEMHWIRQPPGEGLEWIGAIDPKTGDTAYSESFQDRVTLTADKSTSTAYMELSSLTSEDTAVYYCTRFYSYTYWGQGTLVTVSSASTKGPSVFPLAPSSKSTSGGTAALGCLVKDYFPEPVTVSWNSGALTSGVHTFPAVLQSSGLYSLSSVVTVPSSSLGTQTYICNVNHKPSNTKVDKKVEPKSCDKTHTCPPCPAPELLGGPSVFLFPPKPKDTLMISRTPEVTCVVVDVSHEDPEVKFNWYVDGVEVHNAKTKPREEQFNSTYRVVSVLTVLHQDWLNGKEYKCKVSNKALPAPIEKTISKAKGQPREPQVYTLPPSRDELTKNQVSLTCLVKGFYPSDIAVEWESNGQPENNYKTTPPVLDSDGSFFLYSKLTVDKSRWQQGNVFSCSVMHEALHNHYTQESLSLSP
light: B1 light
notes: as for B1
B19: GpH7-B3 variant E333_09D/GpL16-k0 (antibody, human IgG1, kappa)
heavy: not shown
light: B1 light
notes: as for B1
B20: GpH7-B3 variant A330_16H/GpL16-k0 (antibody, human IgG1, kappa)
heavy: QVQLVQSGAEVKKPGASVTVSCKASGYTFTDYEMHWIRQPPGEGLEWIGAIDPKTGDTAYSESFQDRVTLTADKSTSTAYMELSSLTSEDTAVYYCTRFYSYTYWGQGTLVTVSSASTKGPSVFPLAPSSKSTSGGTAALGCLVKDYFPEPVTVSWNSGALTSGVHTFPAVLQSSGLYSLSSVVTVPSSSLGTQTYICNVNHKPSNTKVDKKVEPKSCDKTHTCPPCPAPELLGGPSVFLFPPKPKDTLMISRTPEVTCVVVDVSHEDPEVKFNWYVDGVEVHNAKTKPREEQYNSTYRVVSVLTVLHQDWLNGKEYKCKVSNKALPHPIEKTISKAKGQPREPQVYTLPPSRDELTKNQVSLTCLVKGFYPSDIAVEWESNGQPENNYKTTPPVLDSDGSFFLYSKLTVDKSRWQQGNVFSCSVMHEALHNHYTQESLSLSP
light: B1 light
notes: as for B1
B21: GpH7-A5/GpH7-B3 variant Y296_13S/GpL16-k0 (antibody, human IgG1, kappa)
heavy 1: not shown
heavy 2: not shown
light: B1 light
notes: He Ab: alteration in the GpH7-B3 H chain only; also called He Ab
B22: GpH7-A5/GpH7-B3 variant S239_14T/GpL16-k0 (antibody, human IgG1, kappa)
heavy 1: not shown
heavy 2: not shown
light: B1 light
notes: as for B21
B23: GpH7-A5/GpH7-B3 variant P331_18N/GpL16-k0 (antibody, human IgG1, kappa)
heavy 1: not shown
heavy 2: not shown
light: B1 light
notes: as for B21
B24: GpH7-A5/GpH7-B3 variant Y296_06M/GpL16-k0 (antibody, human IgG1, kappa)
heavy 1: not shown
heavy 2: not shown
light: B1 light
notes: as for B21
B25: GpH7-A5/GpH7-B3 variant Y296_07I/GpL16-k0 (antibody, human IgG1, kappa)
heavy 1: not shown
heavy 2: not shown
light: B1 light
notes: as for B21
B26: GpH7-A5/GpH7-B3 variant Q295_10E/GpL16-k0 (antibody, human IgG1, kappa)
heavy 1: not shown
heavy 2: not shown
light: B1 light
notes: as for B21
B27: GpH7-A5/GpH7-B3 variant Y296_10E/GpL16-k0 (antibody, human IgG1, kappa)
heavy 1: not shown
heavy 2: not shown
light: B1 light
notes: as for B21
B28: GpH7-A5/GpH7-B3 variant P331_09D/GpL16-k0 (antibody, human IgG1, kappa)
heavy 1: not shown
heavy 2: not shown
light: B1 light
notes: as for B21
B29: GpH7-A5/GpH7-B3 variant P331_14T/GpL16-k0 (antibody, human IgG1, kappa)
heavy 1: not shown
heavy 2: not shown
light: B1 light
notes: as for B21
B30: GpH7-A5/GpH7-B3 variant N325_14T/GpL16-k0 (antibody, human IgG1, kappa)
heavy 1: not shown
heavy 2: not shown
light: B1 light
notes: as for B21
B31: GpH7-A5/GpH7-B3 variant Y296_18N/GpL16-k0 (antibody, human IgG1, kappa)
heavy 1: not shown
heavy 2: not shown
light: B1 light
notes: as for B21
B32: GpH7-A5/GpH7-B3 variant Y296_09D/GpL16-k0 (antibody, human IgG1, kappa)
heavy 1: not shown
heavy 2: not shown
light: B1 light
notes: as for B21
B33: GpH7-A5/GpH7-B3 variant P331_08L/GpL16-k0 (antibody, human IgG1, kappa)
heavy 1: not shown
heavy 2: not shown
light: B1 light
notes: as for B21
B34: GpH7-A5/GpH7-B3 variant Y296_14T/GpL16-k0 (antibody, human IgG1, kappa)
heavy 1: not shown
heavy 2: not shown
light: B1 light
notes: as for B21
B35: GpH7-A5/GpH7-B3 variant S324_04F/GpL16-k0 (antibody, human IgG1, kappa)
heavy 1: not shown
heavy 2: not shown
light: B1 light
notes: as for B21
B36: GpH7-A5/GpH7-B3 variant Q295_06M/GpL16-k0 (antibody, human IgG1, kappa)
heavy 1: not shown
heavy 2: not shown
light: B1 light
notes: as for B21
B37: GpH7-A5/GpH7-B3 variant Y296_04F/GpL16-k0 (antibody, human IgG1, kappa)
heavy 1: not shown
heavy 2: not shown
light: B1 light
notes: as for B21
B38: GpH7-A5/GpH7-B3 variant P331_02A/GpL16-k0 (antibody, human IgG1, kappa)
heavy 1: not shown
heavy 2: not shown
light: B1 light
notes: as for B21
B39: GpH7-A5/GpH7-B3 variant N325_15Y/GpL16-k0 (antibody, human IgG1, kappa)
heavy 1: not shown
heavy 2: not shown
light: B1 light
notes: as for B21
B40: GpH7-A5/GpH7-B3 variant P331_13S/GpL16-k0 (antibody, human IgG1, kappa)
heavy 1: not shown
heavy 2: not shown
light: B1 light
notes: as for B21
B41: GpH7-A5/GpH7-B3 variant Y296_19Q/GpL16-k0 (antibody, human IgG1, kappa)
heavy 1: not shown
heavy 2: not shown
light: B1 light
notes: as for B21
B42: GpH7-A5/GpH7-B3 variant N325_10E/GpL16-k0 (antibody, human IgG1, kappa)
heavy 1: not shown
heavy 2: not shown
light: B1 light
notes: as for B21
B43: GpH7-A5/GpH7-B3 variant Y300_18N/GpL16-k0 (antibody, human IgG1, kappa)
heavy 1: not shown
heavy 2: not shown
light: B1 light
notes: as for B21
B44: GpH7-A5/GpH7-B3 variant Y296_16H/GpL16-k0 (antibody, human IgG1, kappa)
heavy 1: not shown
heavy 2: not shown
light: B1 light
notes: as for B21
B45: GpH7-A5/GpH7-B3 variant Y300_04F/GpL16-k0 (antibody, human IgG1, kappa)
heavy 1: not shown
heavy 2: not shown
light: B1 light
notes: as for B21

Key:
[1] = biological target: FcγRIIa H (human FcγRIIa, allotype with His at position 131), extracellular domain with C-terminal His tag (human, UniProt P12318 34-217); assay: SPR (Biacore), antibody captured on antigen peptide chip, FcγR as analyte; relative to HoCon Ab GpH7-B3/GpL16-k0 = 100
[2] = biological target: T1, FcγRIIb extracellular domain with …; assay: SPR Biacore, antibody captured, FcgR analyte; vs HeCon Ab GpH7-A5/GpH7-B3/GpL16-k0 = 100
Description: (§1) The heterodimerized antibodies He Abs in which one of the H chains was introduced with an alteration were assayed for their binding activities to each activating FcγR and inhibitory FcγR according to the method described in Example 4. […] The activating FcγRs in FIGS. 26, 27, 28, and 29 are FcγRIa, FcγRIIa (R), FcγRIIa (H), and FcγRIIIa, respectively.
(§2) Analysis of interaction between objective antibody and the FcγR was carried out using Biacore T100 (GE Healthcare). HBS-EP+ (GE Healthcare) was used as the running buffer, and the measurement temperature was set to 25° C. Chips produced by immobilizing the antigen peptide by the amine coupling method to a Series S Sencor Chip CM5 (GE Healthcare), or alternatively, chips produced by allowing preliminarily biotinylated antigen peptides to interact with and immobilize onto a Series S Sensor Chip SA (certified) (GE Healthcare) were used. Antibodies of interest were captured onto an antigen peptide-immobilized chip, and allowed to interact to each FcγR diluted with running buffer. To regenerate and repeatedly use the chip, the antibodies captured on the chip were washed off by reacting 10 mM glycine-HCl, pH 1.5.

[3] = biological target: T2, FcγRIIa R (FcγRIIa, allotype R: Arg at …); assay: as above
Description: as §1, §2

| Binder | Ho/Con_2aH [1] [control = 100] | He/Con_2b [2] [control = 100] | He/Con_2aR [3] [control = 100] |
| --- | --- | --- | --- |
| B1 | 93.1 | – | – |
| B2 | 101 | – | – |
| B3 | 101 | – | – |
| B4 | 101 | – | – |
| B5 | 111 | – | – |
| B6 | 102 | – | – |
| B7 | 110 | – | – |
| B8 | 100 | – | – |
| B9 | 85.7 | – | – |
| B10 | 101 | – | – |
| B11 | 99.9 | – | – |
| B12 | 96.6 | – | – |
| B13 | 100 | – | – |
| B14 | 91.5 | – | – |
| B15 | 98 | – | – |
| B16 | 111 | – | – |
| B17 | 98.7 | – | – |
| B18 | 95 | – | – |
| B19 | 103 | – | – |
| B20 | 101 | – | – |
| B21 | – | 86.3 | 102 |
| B22 | – | 97.3 | 103 |
| B23 | – | 99.2 | 105 |

| Binder | Ho/Con_2aH [1] [control = 100] | He/Con_2b [2] [control = 100] | He/Con_2aR [3] [control = 100] |
| --- | --- | --- | --- |
| B24 | – | 87.8 | 101 |
| B25 | – | 84.3 | 101 |
| B26 | – | 94.8 | 102 |
| B27 | – | 98 | 103 |
| B28 | – | 94.3 | 102 |
| B29 | – | 99.8 | 104 |
| B30 | – | 91.6 | 105 |
| B31 | – | 91.5 | 104 |
| B32 | – | 98.9 | 106 |
| B33 | – | 95.7 | 102 |
| B34 | – | 88.2 | 103 |
| B35 | – | 89.1 | 104 |
| B36 | – | 90.4 | 102 |
| B37 | – | 99.2 | 109 |
| B38 | – | 99.5 | 106 |
| B39 | – | 99.5 | 101 |
| B40 | – | 96.8 | 105 |
| B41 | – | 89.3 | 102 |
| B42 | – | 95.9 | 105 |
| B43 | – | 82.7 | 100 |
| B44 | – | 92.2 | 105 |
| B45 | – | 94.8 | 108 |

Source: patent US20180155451A1 (published 2018)
